Laboratory results as given in patent publication US20210388087A1 (Chugai, published 2021).
Changes are numbered by the printed parent chain. Blank lines part the entries; values can stand above or below the binder they belong to.

Target: T1, CD3 epsilon homodimer protein (UniProt P07766 23-126)
T1 construct: also called CD3 (CD3 epsilon)
Experiment: SPR, CD3 epsilon homodimer on chip, one-arm antibody as analyte;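 also: surface plasmon resonance at 25 °C with CD3 epsilon homodimer amine-coupled to a CM4 sensor chip, antibody injected as analyte, HBS-EP+ as running buffer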

T1 sequence (P07766 23-126): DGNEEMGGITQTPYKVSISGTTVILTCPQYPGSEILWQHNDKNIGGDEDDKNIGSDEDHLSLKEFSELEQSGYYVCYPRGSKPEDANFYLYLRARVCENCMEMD

B1: CE115HA000 K52bR (antibody, human IgG1, kappa, L234A L235A, N297A, name in Kabat numbering)
heavy: QVQLVESGGGVVQPGRSLRLSCAASGFTFSNAWMHWVRQAPGKGLEWVAQIKARSNNYATYYAESVKGRFTISRDDSKNSLYLQMNSLKTEDTAVYYCRYVHYGAYYGVDAWGQGTTVTVSSASTKGPSVFPLAPSSKSTSGGTAALGCLVKDYFPEPVTVSWNSGALTSGVHTFPAVLQSSGLYSLSSVVTVPSSSLGTQTYICNVNHKPSNTKVDKKVEPKSCDKTHTCPPCPAPEAAGGPSVFLFPPKPKDTLMISRTPEVTCVVVDVSHEDPEVKFNWYVDGVEVHNAKTKPREEQYASTYRVVSVLTVLHQDWLNGKEYKCKVSNKALPAPIEKTISKAKGQPREPQVYTLPPSRCELTKNQVSLSCAVKGFYPSDIAVEWESNGQPENNYKTTPPVLDSDGSFFLVSKLTVDKSRWQQGNVFSCSVMHEALHNHYTQKSLSLSPDYKDDDDK
chain: EPKSSDKTHTCPPCPAPELLGGPSVFLFPPKPKDTLMISRTPEVTCVVVDVSHEDPEVKFNWYVDGVEVHNAKTKPREEQYNSTYRVVSVLTVLHQDWLNGKEYKCKVSNKALPAPIEKTISKAKGQPREPQVCTLPPSRDELTKNQVSLWCLVKGFYPSDIAVEWESNGQPENNYKTTPPVLDSDGSFFLYSKLTVDKSRWQQGNVFSCSVMHEALHNRYTQKSLSLSP
light: DIVMTQSPLSLPVTPGEPASISCRSSQSLVHSNRNTYLHWYQQKPGQAPRLLIYKVSNRFSGVPDRFSGSGSGTDFTLKISRVEAEDVGVYYCGQGTQVPYTFGQGTKLEIKRTVAAPSVFIFPPSDEQLKSGTASVVCLLNNFYPREAKVQWKVDNALQSGNSQESVTEQDSKDSTYSLSSTLTLSKADYEKHKVYACEVTHQGLSSPVTKSFNRGEC
notes: one-arm antibody
KD ratio (KD of CE115HA000/KD of altered form): 0.91

B7: CE115HA000 N31D (antibody, human IgG1, kappa, L234A L235A, N297A, name in Kabat numbering)
heavy: B1 heavy with N31D, R54K
chain: B1 chain
light: B1 light
notes: one-arm antibody
KD ratio (KD of CE115HA000/KD of altered form): 1.14

B8: CE115HA000 K64S (antibody, human IgG1, kappa, L234A L235A, N297A, name in Kabat numbering)
heavy: B1 heavy with R54K, K67S
chain: B1 chain
light: B1 light
notes: one-arm antibody
KD ratio (KD of CE115HA000/KD of altered form): 0.85

B9: CE115HA000 K64D (antibody, human IgG1, kappa, L234A L235A, N297A, name in Kabat numbering)
heavy: B1 heavy with R54K, K67D
chain: B1 chain
light: B1 light
notes: one-arm antibody
KD ratio (KD of CE115HA000/KD of altered form): 0.76

B13: CE115HA000 K64E (antibody, human IgG1, kappa, L234A L235A, N297A, name in Kabat numbering)
heavy: B1 heavy with R54K, K67E
chain: B1 chain
light: B1 light
notes: one-arm antibody
KD ratio (KD of CE115HA000/KD of altered form): 0.84

B14: CE115HA000 K75T (antibody, human IgG1, kappa, L234A L235A, N297A, name in Kabat numbering)
heavy: B1 heavy with R54K, K78T
chain: B1 chain
light: B1 light
notes: one-arm antibody
KD ratio (KD of CE115HA000/KD of altered form): 0.75

B15: CE115HA000 K64A (antibody, human IgG1, kappa, L234A L235A, N297A, name in Kabat numbering)
heavy: B1 heavy with R54K, K67A
chain: B1 chain
light: B1 light
notes: one-arm antibody
KD ratio (KD of CE115HA000/KD of altered form): 0.81

B17: CE115HA000 K52bS (antibody, human IgG1, kappa, L234A L235A, N297A, name in Kabat numbering)
heavy: B1 heavy with R54S
chain: B1 chain
light: B1 light
notes: one-arm antibody
KD ratio (KD of CE115HA000/KD of altered form): 0.58

B18: CE115HA000 K52bY (antibody, human IgG1, kappa, L234A L235A, N297A, name in Kabat numbering)
heavy: B1 heavy with R54Y
chain: B1 chain
light: B1 light
notes: one-arm antibody
KD ratio (KD of CE115HA000/KD of altered form): 0.61

B20: CE115HA000 N31A (antibody, human IgG1, kappa, L234A L235A, N297A, name in Kabat numbering)
heavy: B1 heavy with N31A, R54K
chain: B1 chain
light: B1 light
notes: one-arm antibody
KD ratio (KD of CE115HA000/KD of altered form): 0.96

B22: CE115HA000 K75R (antibody, human IgG1, kappa, L234A L235A, N297A, name in Kabat numbering)
heavy: B1 heavy with R54K, K78R
chain: B1 chain
light: B1 light
notes: one-arm antibody
KD ratio (KD of CE115HA000/KD of altered form): 0.88

B24: CE115HA000 L78I (antibody, human IgG1, kappa, L234A L235A, N297A, name in Kabat numbering)
heavy: B1 heavy with R54K, L81I
chain: B1 chain
light: B1 light
notes: one-arm antibody
KD ratio (KD of CE115HA000/KD of altered form): 1.08

B25: CE115HA000 K64Q (antibody, human IgG1, kappa, L234A L235A, N297A, name in Kabat numbering)
heavy: B1 heavy with R54K, K67Q
chain: B1 chain
light: B1 light
notes: one-arm antibody
KD ratio (KD of CE115HA000/KD of altered form): 0.87

B26: CE115HA000 N31F (antibody, human IgG1, kappa, L234A L235A, N297A, name in Kabat numbering)
heavy: B1 heavy with N31F, R54K
chain: B1 chain
light: B1 light
notes: one-arm antibody
KD ratio (KD of CE115HA000/KD of altered form): 1.24

Continued, values first:

KD ratio (KD of CE115HA000/KD of altered form): 1.37
B2: CE115HA000 N31G (antibody, human IgG1, kappa, L234A L235A, N297A, name in Kabat numbering)
heavy: B1 heavy with N31G, R54K
chain: B1 chain
light: B1 light
notes: one-arm antibody

KD ratio (KD of CE115HA000/KD of altered form): 0.55
B3: CE115HA000 N53H (antibody, human IgG1, kappa, L234A L235A, N297A, name in Kabat numbering)
heavy: B1 heavy with R54K, N56H
chain: B1 chain
light: B1 light
notes: one-arm antibody

KD ratio (KD of CE115HA000/KD of altered form): 0.55
B4: CE115HA000 N53A (antibody, human IgG1, kappa, L234A L235A, N297A, name in Kabat numbering)
heavy: B1 heavy with R54K, N56A
chain: B1 chain
light: B1 light
notes: one-arm antibody

KD ratio (KD of CE115HA000/KD of altered form): 1.07
B5: CE115HA000 N31W (antibody, human IgG1, kappa, L234A L235A, N297A, name in Kabat numbering)
heavy: B1 heavy with N31W, R54K
chain: B1 chain
light: B1 light
notes: one-arm antibody

KD ratio (KD of CE115HA000/KD of altered form): 0.57
B6: CE115HA000 N53I (antibody, human IgG1, kappa, L234A L235A, N297A, name in Kabat numbering)
heavy: B1 heavy with R54K, N56I
chain: B1 chain
light: B1 light
notes: one-arm antibody

KD ratio (KD of CE115HA000/KD of altered form): 0.59
B10: CE115HA000 N53S (antibody, human IgG1, kappa, L234A L235A, N297A, name in Kabat numbering)
heavy: B1 heavy with R54K, N56S
chain: B1 chain
light: B1 light
notes: one-arm antibody

KD ratio (KD of CE115HA000/KD of altered form): 0.94
B11: CE115HA000 N53Y (antibody, human IgG1, kappa, L234A L235A, N297A, name in Kabat numbering)
heavy: B1 heavy with R54K, N56Y
chain: B1 chain
light: B1 light
notes: one-arm antibody

KD ratio (KD of CE115HA000/KD of altered form): 0.98
B12: CE115HA000 N31R (antibody, human IgG1, kappa, L234A L235A, N297A, name in Kabat numbering)
heavy: B1 heavy with N31R, R54K
chain: B1 chain
light: B1 light
notes: one-arm antibody

KD ratio (KD of CE115HA000/KD of altered form): 0.62
B16: CE115HA000 N31I (antibody, human IgG1, kappa, L234A L235A, N297A, name in Kabat numbering)
heavy: B1 heavy with N31I, R54K
chain: B1 chain
light: B1 light
notes: one-arm antibody

KD ratio (KD of CE115HA000/KD of altered form): 0.96
B19: CE115HA000 N31H (antibody, human IgG1, kappa, L234A L235A, N297A, name in Kabat numbering)
heavy: B1 heavy with N31H, R54K
chain: B1 chain
light: B1 light
notes: one-arm antibody

KD ratio (KD of CE115HA000/KD of altered form): 0.67
B21: CE115HA000 N31S (antibody, human IgG1, kappa, L234A L235A, N297A, name in Kabat numbering)
heavy: B1 heavy with N31S, R54K
chain: B1 chain
light: B1 light
notes: one-arm antibody

KD ratio (KD of CE115HA000/KD of altered form): 0.97
B23: CE115HA000 N31K (antibody, human IgG1, kappa, L234A L235A, N297A, name in Kabat numbering)
heavy: B1 heavy with N31K, R54K
chain: B1 chain
light: B1 light
notes: one-arm antibody

KD ratio (KD of CE115HA000/KD of altered form): 0.95
B27: CE115HA000 N53G (antibody, human IgG1, kappa, L234A L235A, N297A, name in Kabat numbering)
heavy: B1 heavy with R54K, N56G
chain: B1 chain
light: B1 light
notes: one-arm antibody

KD ratio (KD of CE115HA000/KD of altered form): 1.1
B28: CE115HA000 N31Y (antibody, human IgG1, kappa, L234A L235A, N297A, name in Kabat numbering)
heavy: B1 heavy with N31Y, R54K
chain: B1 chain
light: B1 light
notes: one-arm antibody

KD ratio (KD of CE115HA000/KD of altered form): 1.05
B29: CE115HA000 N53Q (antibody, human IgG1, kappa, L234A L235A, N297A, name in Kabat numbering)
heavy: B1 heavy with R54K, N56Q
chain: B1 chain
light: B1 light
notes: one-arm antibody

KD ratio (KD of CE115HA000/KD of altered form): 0.79
B30: CE115HA000 N53K (antibody, human IgG1, kappa, L234A L235A, N297A, name in Kabat numbering)
heavy: B1 heavy with R54K, N56K
chain: B1 chain
light: B1 light
notes: one-arm antibody

KD ratio (KD of CE115HA000/KD of altered form): 0.55
B31: CE115HA000 N53D (antibody, human IgG1, kappa, L234A L235A, N297A, name in Kabat numbering)
heavy: B1 heavy with R54K, N56D
chain: B1 chain
light: B1 light
notes: one-arm antibody

KD ratio (KD of CE115HA000/KD of altered form): 0.94
B32: CE115HA000 N31Q (antibody, human IgG1, kappa, L234A L235A, N297A, name in Kabat numbering)
heavy: B1 heavy with N31Q, R54K
chain: B1 chain
light: B1 light
notes: one-arm antibody

KD ratio (KD of CE115HA000/KD of altered form): 0.69
B33: CE115HA000 N53W (antibody, human IgG1, kappa, L234A L235A, N297A, name in Kabat numbering)
heavy: B1 heavy with R54K, N56W
chain: B1 chain
light: B1 light
notes: one-arm antibody
